Data from patent US20020146750A1 (published 2002).
Where a chain is given by its changes, count along the chain named.

Assays:
[1] = biological target: T1, MUC1 15-mer Ac-PDTRPAPGSTAPPAL-NH2; test: SPR (BIAcore 2000), 1:1 Langmuir at steady state, 50 RU peptide; 15-mer surface; Fab
T1 construct: coated on a biotin chip
T1 peptide: Ac-PDTRPAPGSTAPPAL-NH2
Method: (§1) The selected PH1-IgG1 and the Fab PH1 antibodies were evaluated for their binding characteristics by surface plasmon resonance on a BIAcore 2000 apparatus (BIAcore AB, Uppsala, Sweden). A biotin chip was coated with a MUC1 15-mer, containing the minimal PH1 epitope, PAP (Ac-PDTRPAPGSTAPPAL-NH₂ (SEQ ID NO:40) (see Example 2, above), 50 RU and 320 RU) and 60-mer (NH₂-([…])₃-COOH (SEQ ID NO:8) (von Mensdorff-Pouilly et al., Tumor Biol., 19: 186-195 (1998), 50 RU) in HBS-EP buffer (Pharmacia) a surface, blocked with biotin (15 RU), was used as a negative control. The Fab PH1 and PH1-IgG1 were injected in HBS-EP buffer. To minimize rebinding of the antigen binding molecules, a speed of 30 μl/sec was used. Affinity calculation was performed with computer programs provided by BIAcore (BIAEvaluation-version3, BIACore AB). […] The affinity for the PH1 Fab antibody was calculated according to a 1:1 Langmuir stoichiometry at steady state (Chi²: 50.6). Because of the two binding places on the PH1-IgG1, the avidity was calculated as an apparent avidity constant using 1:1 Langmuir determination with mass transfer limitation (Chi²: 42).
(§2) The affinity of the antibody was determined using BIAcore. Affinities of the Fab PH1 were calculated to be an average of 1.4 μM for binding to the 15-mer and 60-mer MUC1 peptide antigen coated surfaces.

[2] = biological target: T1, MUC1 15-mer Ac-PDTRPAPGSTAPPAL-NH2; test: SPR (BIAcore) Kd assay on MUC1 15-mer
Method: (§3) The selected PH1 and the affinity-matured antibodies were evaluated for affinity by surface plasmon resonance (SPR) on a BIAcore 2000 apparatus (BIAcore AB, Uppsala, Sweden). Channels of a biotin chip were coated with a MUC1 15-mer, containing the minimal PH1 epitope, PAP, (Ac-PDTRPAPGSTAPPAL-NH₂, (SEQ ID NO:40) 50 RU or 320 RU) or a 60-mer (NH₂-([…])₃-COOH (i.e., containing three copies of SEQ ID NO:8 (von Mensdorff-Pouilly et al., Tumor Biol., 19: 186-195 (1998), 50 RU) in HBS-EP buffer (Pharmacia). One surface was blocked with biotin (15 RU) and used as a negative control. The antibodies were injected in HBS-EP buffer. To minimize rebinding of the antigen binding fragments, the flow speed was 30 μl/sec. Affinity calculation was performed with the BIA-evaluation software provided by the BIAcore. The affinities of the Fabs were calculated according to a 1:1 stoichiometry at steady state.
(§4) The CDR3 variants were extensively tested in BIAcore for the kinetics of the MUC1 peptide interaction. […] Using this off-rate screening with Fabs in the periplasmic extract of E. coli cultures, the clones in Table 9 as well as many more were screened for improvement in off-rate. […] To get accurate measurements, a Kd assay on the BIAcore was used with the MUC1 15-mer (there was no difference in the kinetics of interaction when the MUC1 60-mer was used, data not shown). […]

[3] = biological target: T2, MUC1 60-mer peptide NH2-(…)3-COOH (biotinylated in the ELISAs and selections); test: ELISA, soluble Fab, biotinylated MUC1 60-mer; relative signal
T2 construct: also called biotinylated MUC1 60-mer
Summary of the method: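 Soluble Fabs were tested by ELISA using biotinylated MUC1 60-mer as antigen, with signal reported relative.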

[4] = biological target: T1, MUC1 15-mer Ac-PDTRPAPGSTAPPAL-NH2; test: SPR (BIAcore 2000), apparent avidity constant, 1:1 Langmuir with mass transfer limitation, low density surface; 15-mer, low density surface; IgG1 avidity
Method: as §1, §2

[5] = biological target: T2, MUC1 60-mer peptide NH2-(…)3-COOH; test: phage ELISA on MUC1 antigen (biotinylated MUC1 60-mer)
[6] = biological target: T2, MUC1 60-mer peptide NH2-(…)3-COOH; test: SPR (BIAcore), MUC1 60-mer peptide antigen; the 3.5-fold end is tied to 5C8 by paragraph 206; best variant, 5C8; Fab on MUC1 peptide chip
Method: as §3, §4

B1: PH1 Fab antibody (Fab, V domains shown)
VH: QVQLVQSGGGLVQPGGSLRLSCAASGFTFRSNAMGWVRQAPGKGLEWVSGISGSGGSTYYADSVKGRFTISRDNSKNTLYLQMNSLRAEDTAVYYCAKHTGGGVWDPIDYWGQGTLVTVSS
VL: EIVLTQSPLSLPVTPGEPASISCRSSQSLLHSNGYTYLDWYLQKPGQSPQLLIYSGSHRASGVPDRFSGSVSGTDFTLRISRVEAEDVGVYYCMQGLQSPFTFGPGTKVDIKR
notes: Human Fab from a naive phage library; also called Fab PH1; WT-PH1
[1]
  Kd: 1400 nM

B2: 7F9 (Fab, V domains shown)
VH: B1 VH with D109G
VL: B1 VL
notes: PH1 Fab variant; also called clone 7F9
[2]
  fold improvement of affinity over wild type PH1 Fab: < 2 fold
[3]
  binding result: binds

B3: PH1-IgG1 (antibody, V domains shown)
VH: B1 VH
VL: B1 VL
notes: Fully human gamma-1/kappa IgG1 from CHO-K1 clone 7F; FITC-labeled or biotinylated in some assays; also called recombinant human MUC1-specific IgG1; PH1-IgG1-FITC
[4]
  Kd: 8.3 nM

B4: clone 25 (unselected SPIKE library) (Fab, V domains shown)
VH: B1 VH with G102V, D106H, D109Y
VL: B1 VL
[5]
  ELISA OD450: 0.315 OD450

B5: clone 22 (unselected SPIKE library) (Fab, V domains shown)
VH: B1 VH with K98R, D109Y
VL: B1 VL
[5]
  ELISA OD450: 0.663 OD450

B6: clone 23 (unselected SPIKE library) (Fab, V domains shown)
VH: B1 VH with H99P, V104A
VL: B1 VL
[5]
  ELISA OD450: 0.373 OD450

B7: 5C8 (Fab, V domains shown)
VH: B1 VH with G102R, D109G
VL: B1 VL
notes: PH1 Fab variant; also called clone 5C8
[2]
  fold improvement of Kd over wild type PH1 Fab: 3.5 fold
[6]
  Kd: ~400 nM

B8: clone 20 (unselected SPIKE library) (Fab, V domains shown)
VH: B1 VH with K98S, G103R, V104G
VL: B1 VL
[5]
  ELISA OD450: 0.109 OD450

B9: clone 21 (unselected SPIKE library) (Fab, V domains shown)
VH: B1 VH with K98N, H99Q
VL: B1 VL
[5]
  ELISA OD450: 0.108 OD450
